Assay results from patent publication US20070087986A1, “Compositions and methods for enhancing immunity by chemoattractant adjuvants” (priority 2004, published 2007).
Non-standard residues stand in square brackets, D forms with d. No end group written: not given here.

B1: mC5a: chemoattractant mC5a (SEQ ID NO: 62) (protein, listed as Homo sapiens)
chain: NLHLLRQKIEEQAAKYKHSVPKKCCYDGARVNFYETCEERVARVTIGPLCIRAFNECCTIANKIRKESPHKPVQLGR

Legend:
[1] = target: T1, FPRL1 (Homo sapiens, UniProt P25090); test: FPRL1 activity of SHAAGtide and truncated and other variants; details: in words: high, moderate, low
T1 sequence (P25090 1-351): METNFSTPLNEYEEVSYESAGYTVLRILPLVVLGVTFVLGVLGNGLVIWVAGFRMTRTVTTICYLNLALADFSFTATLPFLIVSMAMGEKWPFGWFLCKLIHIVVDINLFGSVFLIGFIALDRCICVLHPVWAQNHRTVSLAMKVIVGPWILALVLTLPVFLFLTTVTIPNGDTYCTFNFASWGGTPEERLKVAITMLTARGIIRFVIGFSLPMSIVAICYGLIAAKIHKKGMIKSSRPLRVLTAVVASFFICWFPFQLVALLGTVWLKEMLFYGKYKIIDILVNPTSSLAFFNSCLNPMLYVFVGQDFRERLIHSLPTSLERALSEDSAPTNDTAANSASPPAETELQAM
From the text: In addition to the agonists and antagonists shown in TABLE 4, SHAAGtide polypeptides were also shown to modulate FPRL1 activity. The term “SHAAGtide” includes SHAAGtide polypeptides (shown in TABLE 5), including isolated or purified SHAAGtide polypeptides, proteins or biologically active fragments separated from or recovered from a component of its natural environment; and polynucleotides shown in TABLE 6, truncated variants and other variants thereof, including naturally occurring allelic variants, derivatives and analogs. SHAAGtide polypeptides are derived from the alternatively spliced variant of CKβ8, namely CKβ8-1. CKβ8-1 is a 116 amino acid long polypeptide that includes the sequence of SHAAGtide polypeptides. […]

[2] = tested on: Female BALB/C mice; assay type: in vivo; details: for levels of antigen specific IgA antibodies: mucosal samples, day 21, intranasal rPA plus adjuvant; for levels of antigen specific IgG antibodies: serum, day 21, intranasal rPA 10 μg plus adjuvant, vs rPA alone

Row | Molecule | FPRL1 Activity [1] | levels of antigen specific IgA antibodies [2] | levels of antigen specific IgG antibodies [2]
1 | MLWRRKIGPQM [CCXP8] | Moderate |  | 
2 | WRRKIGPQMTLSHAAG [CCXP7] | Low activity |  | 
3 | WRRKIG [CCXP10] | Low activity |  | 
4 | WRRKIGPQM [CCXP9] | Low activity |  | 
5 | MLWRRKIGPQMT [CCXP5] | Moderate |  | 
6 | 5′-TCCATGACGTTCCTGATGCT-3′ (chemistry not given here) [CpG, CpG oligonucleotide, ligand for TLR9, reference compound] |  | did not induce significant levels | did not induce significant levels
7 | MLWRRKIGPQMTLSH [CCXP3] | High |  | 
8 | LWRRKIGPQMTLSH [CCXP11] | Moderate |  | 
9 | IGPQMTLSHAAG [CCXP4] | Low |  | 
10 | Trp-Lys-Tyr-Met-Val-D-Met-CONH2 (WKYMV[dM]-NH2) [W-tide, WKYMV-(d-Met)-CONH2, synthetic hexapeptide ligand of FPRL1, reference compound] |  | did not induce significant levels | did not induce significant levels
11 | RRKIGPQMTLSHAAG [CCXP2] | Low |  | 
12 | mJE: chemokine mJE (SEQ ID NO: 60), used as chemoattractant adjuvant |  | did not induce significant levels | did not induce significant levels
13 | MLWRRKIGPQMTLSHAAG [CCXP1] | sequence high | did not induce significant levels | did not induce significant levels
14 | MLWRRKIGPQMTLSHAAY [CCXP6] | high |  | 
15 | B1 |  | did not induce significant levels | did not induce significant levels
